The target of data set [1] is T1, VEGF165 (UniProt P15692-4 P15692-4:27-191). Put plainly: EMSA; PBS + 0.005% NP-40, 37 C; shift band lost. To be noted: chain copies: 2. The protocol: (§1) The purified oligomer of the candidate sequence (T-00199, see below for the sequence in Table 4) was added into the binding solution to adjust to 0.2 μM, and a folding operation (at 95° C. for 5 minutes→(−0.1° C./sec)→at 25° C.) was performed to form tertiary structures. Thereafter, VEGF165 was diluted with the binding solution to 0.2 μM and mixed with the folded DNA solution, and the resultant was incubated at 37° C. for 30 minutes. The sample incubated was subjected to electrophoresis with 10% unmodified polyacrylamide gel to analyze on whether a band indicative of the DNA-protein complex could be detected. DNA was stained with SYBR Gold, and detected with blue light at 470 nm.
T1 sequence (P15692 other isoform, or with tags, fused parts or gaps): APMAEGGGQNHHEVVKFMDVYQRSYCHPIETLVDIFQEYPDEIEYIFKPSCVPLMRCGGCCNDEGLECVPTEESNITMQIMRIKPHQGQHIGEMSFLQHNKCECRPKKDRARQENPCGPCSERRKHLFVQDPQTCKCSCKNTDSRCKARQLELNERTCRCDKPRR
Subsequently, to determine whether the novel artificial base dDsbn is involved in binding to VEGF165, evaluation was performed with oligomers obtained by substituting dDsbn with dDs or dA (dDs-substituted form: T-00200, dA-substituted form: T-00201, see below for the sequences in Table 4). The oligomers were synthesized with a chemical synthesis method, and purified with an OPC (cartridge). For EMSA, a folding operation and reaction were performed as described above, and analysis was performed with unmodified polyacrylamide (in FIG. 2, dDs: two lanes in the center, dA: two lanes in the right).
On the technique in general: In EMSA bound probe runs differently from free probe, usually more slowly.

The target in data set [2] is T2, sIL-6R (soluble interleukin-6 receptor) (UniProt P08887 P08887:20-355). Description: EMSA; PBS + 0.005% NP-40, room temperature; shift band lost. The protocol:
as §1, with “sequence” for “sequence (T-00199, see below for the sequence in Table 4)”, “sIL-6R” for “VEGF165”, “room temperature” for “37° C.”, “8%” for “10%”, “nm (two lanes in the left in FIG. 4).” for “nm.”
Subsequently, to determine whether the novel artificial base dDsbn is involved in binding to sIL-6R, evaluation was performed with oligomers obtained by substituting dDsbn with dDs or dA (dDs-substituted form: T-00203, dA-substituted form: T-00204, see below for the sequences in Table 5). The oligomers were synthesized with a chemical synthesis method, and purified with an OPC (cartridge). For EMSA, a folding operation, reaction, and analysis with unmodified polyacrylamide were performed as described above (FIG. 4).

Data set [3] deals with T2, sIL-6R (soluble interleukin-6 receptor). The data set is described as above. How it is done:
(§2) Analysis was performed by EMSA on whether the most concentrated candidate sequence binds to the target protein. First, an oligomer corresponding to the candidate sequence (T-00247, see below for the sequence in Table 9) was synthesized with a chemical synthesis method, and purified with an OPC (cartridge). The purified oligomer of the candidate sequence was added into the binding solution to adjust to 0.2 μM, and a folding operation (at 95° C., for 5 minutes→(−0.1° C./sec)→at 25° C.) was performed to form tertiary structures. Thereafter, sIL-6R was diluted with the binding solution to 0.6 μM and mixed with the folded DNA solution, and the resultant was incubated at room temperature for 30 minutes. The sample incubated was subjected to electrophoresis with 8% unmodified polyacrylamide gel to analyze on whether a band indicative of the DNA-protein complex could be detected. DNA was stained with SYBR Gold, and detected with blue light at 470 nm.
Subsequently, to determine whether the novel artificial base dDscp is involved in binding to sIL-6R, evaluation was performed with oligomers obtained by substituting dDscp with dDs or dA (dDs-substituted form: T-00248, dA-substituted form: T-00249, see below for the sequences in Table 9). The oligomers were synthesized with a chemical synthesis method, and purified with an OPC (cartridge). […]
This is another data set of the same source.

The target of data set [4] is T1, VEGF165. Description: EMSA; PBS + 0.005% NP-40, 37 C; shift band lost. As to conditions: chain copies: 2. How it is done:
as §2, with “(T-00244,” for “(T-00247,”, “8)” for “9)”, “VEGF165” for “sIL-6R”, “0.2” for “0.6”, “37° C.” for “room temperature”
Subsequently, to determine whether the novel artificial base dDscp is involved in binding to VEGF165, evaluation was performed with oligomers obtained by substituting dDscp with dDs or dA (dDs-substituted form: T-00245, dA-substituted form: T-00246, see below for the sequences in Table 8). The oligomers were synthesized with a chemical synthesis method, and purified with an OPC (cartridge). […]
The source holds these as a separate data set.

Like-named read-outs stand apart in the source and are kept apart here.

T2 sequence (P08887 20-355, one chain of several): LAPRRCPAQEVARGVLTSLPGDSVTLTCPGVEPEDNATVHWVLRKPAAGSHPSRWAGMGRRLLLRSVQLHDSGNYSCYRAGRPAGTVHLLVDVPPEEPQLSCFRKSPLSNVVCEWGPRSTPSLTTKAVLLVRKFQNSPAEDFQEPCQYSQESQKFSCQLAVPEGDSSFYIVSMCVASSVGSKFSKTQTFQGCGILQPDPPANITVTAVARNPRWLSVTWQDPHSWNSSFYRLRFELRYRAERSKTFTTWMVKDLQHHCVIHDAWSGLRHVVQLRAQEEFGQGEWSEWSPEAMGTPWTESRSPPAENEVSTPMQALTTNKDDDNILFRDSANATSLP

B1: T-00201 (ssDNA)
DNA: CTCCATTGACTCGGCTTAAACTCCCGTCAGTTATGAATAGGTACGCATGCGGAGTTCGCTACCCCGCCATGGTCATATTGGGGTGCTCCTTGGCT
B1: the binding result with VEGF165 [1] is “no binding”.

B2: T-00204 (ssDNA)
DNA: CTCCATTGACTCGGCTTAAACTCCCAGGAGGTGGTGGGGGTGGGATTAGGGTTGGGATTGGAGGGGTGTCGGTCATATTGGGGTGCTCCTTGGCT
On to B2, for which the binding result in data set [2] is listed as “no binding”.

B3: T-00249 (ssDNA)
DNA: GCGTGTTGAGCTGTATTAGGGTGTCAGGAAGGATTCGGGGGTGGATTTAGGGGGGGATCGTTGTGGAGGCGATACAATCCTGATCCATGAGACGG
For B3, in data set [3], the binding result is given as “no binding”.

B4: T-00246 (ssDNA)
DNA: GCGTGTTGAGCTGTATTAGGGTGTCAGGTTTTGGTCAGGCGTTCAAACGTAGAGGAATGGACACTTCGGCGATACAATCCTGATCCATGAGACGG
As to B4, in the data set with VEGF165 [4], the binding result is “no binding”.

(Values after patent US20240182908, “DEOXYRIBONUCLEOSIDE OR DEOXYRIBONUCLEOTIDE HAVING NOVEL ARTIFICIAL BASE APPLICABLE TO SCREENING FOR DNA APTAMER, AND NUCLEIC ACID CONTAINING THE SAME” (TAGCYX BIOTECHNOLOGIES INC., published 2024).)
